We go through 4 molecules from patent US20250059284A1 (AGENX, published 2025).

In assay [1] the target is T1, human Gal10-His (human, UniProt Q05315 2-142, limits assumed).
T1 construct: also called human galectin-10; not shown: His tag
T1 sequence: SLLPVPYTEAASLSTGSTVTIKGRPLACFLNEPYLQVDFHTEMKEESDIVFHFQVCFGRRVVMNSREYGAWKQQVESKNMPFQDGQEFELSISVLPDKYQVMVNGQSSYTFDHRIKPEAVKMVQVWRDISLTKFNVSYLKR
In words: SPR Biacore 3000; human Gal10-His captured on anti-His CM5 chip; Fab at 30 nM. The method, then:
(§1) The binding properties of the selected Fab clones to human and cynomolgus Gal10 was analyzed via a capture method established on Biacore 3000. For this purpose, two approaches were used. In the first one, two concentrations of the selected Fab clone were applied on cynomolgus (WGS isoform) Gal10-His capture on a CM5 chip coated with a monoclonal anti-His. In the second approach, a serial dilution was applied on human or cynomolgus (WGS isoform) Gal10 His on the same set up.

Assay [2] has as its target T2, recombinant galectin-10 crystals (Charcot-Leyden crystals) (UniProt Q05315 2-142, limits assumed).
T2 sequence (looked up): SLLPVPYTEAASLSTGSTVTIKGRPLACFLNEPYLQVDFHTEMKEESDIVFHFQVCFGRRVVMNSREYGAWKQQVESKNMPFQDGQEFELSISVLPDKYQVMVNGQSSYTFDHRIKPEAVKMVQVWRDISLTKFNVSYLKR
Briefly: cell-based or functional assay.

Assay [3] deals with T3, cynomolgus Gal10-His (WGS isoform) (cynomolgus).
T3 construct: also called cyno Gal10; cynomolgus antigen
Briefly: SPR Biacore 3000; cynomolgus Gal10-His (WGS isoform) captured on anti-His CM5 chip; Fab at 30 nM. The method, then:
as §1
(In general: SPR reads the build-up and loss of mass on a sensor chip optically.)

The target of assay [4] is T1, human Gal10-His. In words: SPR Biacore 3000; human Gal10-His captured on anti-His CM5 chip. On the procedure: The binding properties of the selected Fab clones to human Gal10 were analyzed via a capture method established on Biacore 3000. It was decided to apply two concentrations of the selected Fab clones on human Gal10-His immobilized on a CM5 chip coated with a monoclonal anti-His.

In assay [5] the target is T4, galectin-10 (Gal10), species and tag not stated for the assay (UniProt Q05315 2-142, limits assumed).
T4 construct: human is likely, since the human-specific 1D11 is in the panel
T4 sequence (looked up): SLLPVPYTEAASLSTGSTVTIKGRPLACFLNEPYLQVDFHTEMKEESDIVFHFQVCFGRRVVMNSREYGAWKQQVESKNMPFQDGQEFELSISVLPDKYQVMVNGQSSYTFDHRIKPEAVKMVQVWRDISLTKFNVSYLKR
In words: SPR (Biacore 3000), binding activity of the sample stored 4 weeks at +5 C and nebulized, relative to reference sample T0; criterion <20% loss. The method, then:
The functional active concentration of the nebulized solutions was assessed by SPR on a Biacore 3000 instrument. All samples were evaluated with methods meeting the standard qualification criteria. Aliquots were tested at predefined test concentrations against titration curves from reference samples (TO) and in the presence of quality control (QC) samples.

B1: g24F02_N53A human Fab (Fab, V domains shown)
VH: EVQLLESGGGLVQPGGSLRLSCAASGFTFSSYAMSWVRQAPGKGLEWVSAINAGGGSTSYADSVKGRFTISRDNSKNTLYLQMNSLRAEDTAVYYCAKGLRVGVLGFDYWGQGTLVTVSS
VL: SYELTQPLSVSVALGQTARITCDGNNIGSKSAQWYQQKPGQAPVLVIYADEYRPEGIPERFSGSNSGNTATLTISRAQAGDEADYYCQVWDGSAAVFGGGTQLTVL
notes: Human Fab backbone
For the molecule B1, the “Amplitude R0 (RU) 30 nM” value with human Gal10-His [1] worked out at 647 RU. In assay [2], the “EC50, Gal10 crystal dissolution, stressed material (T4W post-nebulization, after 2 hour incubation), assay 2” value was 159 mg/L; the “EC50, Gal10 crystal dissolution, unstressed material (T0, after 2 hour incubation), assay 2” value worked out at 191 mg/L; the “relative activity in recombinant Gal10 crystal dissolution, T4W post-nebulization sample relative to unstressed material T0 (at 2 hour incubation)” value was 120%. For the same molecule, the “Amplitude R0 (RU) 30 nM” value in assay [3] came to 544 RU. Also, the “fold better off rate than g7B07” value with human Gal10-His [4] worked out at 3.5 fold. Further, in assay [5], the “relative activity by SPR for T4W post-nebulization sample relative to reference sample T0” value (from here on “relative activity by SPR”) was 111%.

B2: g23H09 human Fab (Fab, V domains shown)
VH: EVQLLESGGGLVQPGGSLRLSCAASGFTFRSYDMSWVRQAPGKGLEWVSAIAQFQHWTYYADSVKGRFTISRDNSKNTLYLQMNSLRAEDTAVYYCATTHGIGTLGFGSWGQGTLVTVSS
VL: SYELTQPLSVSVALGQTARITCDGNNIGSKSAQWYQQKPGQAPVLVIYADEYRPEGIPERFSGSNSGNTATLTISRAQAGDEADYYCQVWDGSAAVFGGGTQLTVL
notes: Germlined clone in human Fab backbone; also called clone 23H09
Turning to B2, the “Amplitude R0 (RU) 30 nM” value with human Gal10-His [1] came out at 722 RU. Moreover, in assay [2], the “EC50, Gal10 crystal dissolution, stressed material (T4W post-nebulization, after 2 hour incubation), assay 1” value was 297 mg/L; the “EC50, Gal10 crystal dissolution, stressed material (T4W post-nebulization, after 2 hour incubation), assay 2” value was found to be 209 mg/L; the “EC50, Gal10 crystal dissolution, unstressed material (T0, after 2 hour incubation), assay 1” value was 252 mg/L; the “EC50, Gal10 crystal dissolution, unstressed material (T0, after 2 hour incubation), assay 2” value was found to be 190 mg/L. For the same molecule, in assay [2], the “relative activity in recombinant Gal10 crystal dissolution, T4W post-nebulization sample relative to unstressed material T0 (at 2 hour incubation), assay 1” value was 85% and the “relative activity in recombinant Gal10 crystal dissolution, T4W post-nebulization sample relative to unstressed material T0 (at 2 hour incubation), assay 2” value was determined as 91%. In addition, the “Amplitude R0 (RU) 30 nM” value in assay [3] worked out at 589 RU. In addition, the “fold better off rate than g7B07” value with human Gal10-His [4] came out at 1.9 fold. Also, the “relative activity by SPR” value in assay [5] was found to be 119%.

B3: g20H09 human Fab (Fab, V domains shown)
VH: EVQLLESGGGLVQPGGSLRLSCAASGFTFRSYDMSWVRQAPGKGLEWVSAIKWHRITYYADSVKGRFTISRDNSKNTLYLQMNSLRAEDTAVYYCATTHGIGTLGFGSWGQGTLVTVSS
VL: SYELTQPLSVSVALGQTARITCDGNNIGSKSAQWYQQKPGQAPVLVIYADEYRPEGIPERFSGSNSGNTATLTISRAQAGDEADYYCQVWDGSAAVFGGGTQLTVL
notes: Germlined clone in human Fab backbone; also called clone 20H09
Take B3: in assay [2], the “EC50, Gal10 crystal dissolution, stressed material (T4W post-nebulization, after 2 hour incubation), assay 1” value was 395 mg/L; the “EC50, Gal10 crystal dissolution, unstressed material (T0, after 2 hour incubation), assay 1” value is 260 mg/L; the “relative activity in recombinant Gal10 crystal dissolution, T4W post-nebulization sample relative to unstressed material T0 (at 2 hour incubation)” value worked out at 66%. Besides, the “relative activity by SPR” value in assay [5] was 97%.

B4: g24F02 human Fab (Fab, V domains shown)
VH: EVQLLESGGGLVQPGGSLRLSCAASGFTFSSYAMSWVRQAPGKGLEWVSAINNGGGSTSYADSVKGRFTISRDNSKNTLYLQMNSLRAEDTAVYYCAKGLRVGVLGFDYWGQGTLVTVSS
VL: SYELTQPLSVSVALGQTARITCDGNNIGSKSAQWYQQKPGQAPVLVIYADEYRPEGIPERFSGSNSGNTATLTISRAQAGDEADYYCQVWDGSAAVFGGGTQLTVL
notes: Germlined clone in human Fab backbone
For the molecule B4, the figures for the “Amplitude R0 (RU) 30 nM” value (with human Gal10-His [1]; in assay [3]) were 644 RU and 566 RU, respectively.
